Drawing on article PMC7617285, “Dehydrogenase versus oxidase function: the interplay between substrate binding and flavin microenvironment” (ACS catalysis, 2025), this text covers Km, kcat and kcat/Km for eight proteins.

Holding throughout (assay): purified protein
Substrate in data set [1]: COc1cc(CO)ccc1O
Format: biochemical, Rhodococcus jostii. Particulars: molecular oxygen as acceptor, 25 °C, 50 mM potassium phosphate pH 7.5, 150 mM NaCl.

Substrate in data set [2]: COc1cc(CO)ccc1O
It is filed as biochemical, Hyphococcus luteus. Particulars: 100 μM DCPIP as acceptor, 25 °C, 50 mM potassium phosphate pH 7.5, 150 mM NaCl.

Substrate in data set [3]: OCc1ccc(O)cc1
Format: biochemical, Hyphococcus luteus. Particulars: 100 μM DCPIP as acceptor, 25 °C, 50 mM potassium phosphate pH 7.5, 150 mM NaCl.

Substrate in data set [4]: COCc1ccc(O)cc1
Format: biochemical, Hyphococcus luteus. Particulars: 100 μM DCPIP as acceptor, 25 °C, 50 mM potassium phosphate pH 7.5, 150 mM NaCl.

Substrate in data set [5]: C=CCc1ccc(O)c(OC)c1
It is filed as biochemical, Hyphococcus luteus. Particulars: 100 μM DCPIP as acceptor, 25 °C, 50 mM potassium phosphate pH 7.5, 150 mM NaCl.

B1: EUGO (eugenol oxidase from Rhodococcus jostii RHA1) (Rhodococcus jostii RHA1) (protein)
chain: MTRTLPPGVSDERFDAALQRFRDVVGDKWVLSTADELEAFRDPYPVGAAEANLPSAVVSPESTEQVQDIVRIANEYGIPLSPVSTGKNNGYGGAAPRLSGSVIVKTGERMNRILEVNEKYGYALLEPGVTYFDLYEYLQSHDSGLMLDCPDLGWGSVVGNTLDRGVGYTPYGDHFMWQTGLEVVLPQGEVMRTGMGALPGSDAWQLFPYGFGPFPDGMFTQSNLGIVTKMGIALMQRPPASQSFLITFDKEEDLEQIVDIMLPLRINMAPLQNVPVLRNIFMDAAAVSKRTEWFDGDGPMPAEAIERMKKDLDLGFWNFYGTLYGPPPLIEMYYGMIKEAFGKIPGARFFTHEERDDRGGHVLQDRHKINNGIPSLDELQLLDWVPNGGHIGFSPVSAPDGREAMKQFEMVRNRANEYNKDYAAQFIIGLREMHHVCLFIYDTAIPEAREEILQMTKVLVREAAEAGYGEYRTHNALMDDVMATFNWGDGALLKFHEKIKDALDPNGIIAPGKSGIWSQRFRGQNL
notes: covalent FAD on H390
Usually Km stands for the concentration of substrate that gives half-maximal velocity. What is called kcat is the maximal rate divided by the concentration of active sites. Usually kcat/Km stands for the second-order rate constant that governs catalysis at low substrate concentration. Take B1: in “purified protein [1]”, the Km was determined as 204.4 ± 28.9 µM, the kcat stood at 9.68 ± 0.43 s⁻¹ and the kcat/Km came to 47400 M⁻¹ s⁻¹.

B2: VAD (vanillyl-alcohol dehydrogenase from Marinicaulis flavus) (Hyphococcus luteus; P151I) (protein)
chain: MAAPLPEGVSAEAMSSALDRFARIVGADWVFTEDKITPYEDPYTISNDETEHRPYAAVAPASTEEVQEIVRVANEFGVPLWPVSRGKNFAYGGAAPVMSGTVVLDMNRMNRILEVNEEFGYALVEPGVSYFELYDYIQEKGLKLWIDVPDIGWGSVVGNALDHGIGYTPYGDHFAMQCGMEVVLPNGEVVRTGMGAMPGNNTWQLFKYGYGPYVDGIFSQSNFGVVTKMGIWLMPEPAGYRPYLITFENEDDIETVTERLRPLKVAGVIQNGATVRSLVLDAAITRTKSQYYDGDGPIPPSVAKTMMADLDLGMWNFCGALYGPPPVMDTLWTAIRDSFADIPGVKFYFPEDRRHKVDLLLHRAETMKGVPKLTEFNFLNWDGGGGHVGFSPVSPITGKDAIKQYNMVSSRVREYGFDYMGLLAIGWRDLHHVTVIVYDKTDPDERKKLDELFNILVDEAAAEGYGEYRTHIRYMDRIAKTYSWNDNALWKMHETIKDALDPNGILAPGKSGIWGKNRRKA
notes: SUMO tag cleaved for crystals; covalent FAD on H387; dimer
As to B2, in the data set “purified protein [2]”, the Km came to 37.5 ± 9.2 µM, the kcat was determined as 0.73 ± 0.04 s⁻¹ and the kcat/Km was found to be 19000 M⁻¹ s⁻¹.

B3: VAD (vanillyl-alcohol dehydrogenase from Marinicaulis flavus) (Hyphococcus luteus; P151L) (protein)
chain: MAAPLPEGVSAEAMSSALDRFARIVGADWVFTEDKITPYEDPYTISNDETEHRPYAAVAPASTEEVQEIVRVANEFGVPLWPVSRGKNFAYGGAAPVMSGTVVLDMNRMNRILEVNEEFGYALVEPGVSYFELYDYIQEKGLKLWIDVPDLGWGSVVGNALDHGIGYTPYGDHFAMQCGMEVVLPNGEVVRTGMGAMPGNNTWQLFKYGYGPYVDGIFSQSNFGVVTKMGIWLMPEPAGYRPYLITFENEDDIETVTERLRPLKVAGVIQNGATVRSLVLDAAITRTKSQYYDGDGPIPPSVAKTMMADLDLGMWNFCGALYGPPPVMDTLWTAIRDSFADIPGVKFYFPEDRRHKVDLLLHRAETMKGVPKLTEFNFLNWDGGGGHVGFSPVSPITGKDAIKQYNMVSSRVREYGFDYMGLLAIGWRDLHHVTVIVYDKTDPDERKKLDELFNILVDEAAAEGYGEYRTHIRYMDRIAKTYSWNDNALWKMHETIKDALDPNGILAPGKSGIWGKNRRKA
notes: as for B2
For the protein B3, in the data set “purified protein [2]”, the Km was 72.4 ± 6.3 µM, the kcat was 0.76 ± 0.02 s⁻¹ and the kcat/Km was found to be 10500 M⁻¹ s⁻¹.

B4: VAD (vanillyl-alcohol dehydrogenase from Marinicaulis flavus) (Hyphococcus luteus; P151T) (protein)
chain: MAAPLPEGVSAEAMSSALDRFARIVGADWVFTEDKITPYEDPYTISNDETEHRPYAAVAPASTEEVQEIVRVANEFGVPLWPVSRGKNFAYGGAAPVMSGTVVLDMNRMNRILEVNEEFGYALVEPGVSYFELYDYIQEKGLKLWIDVPDTGWGSVVGNALDHGIGYTPYGDHFAMQCGMEVVLPNGEVVRTGMGAMPGNNTWQLFKYGYGPYVDGIFSQSNFGVVTKMGIWLMPEPAGYRPYLITFENEDDIETVTERLRPLKVAGVIQNGATVRSLVLDAAITRTKSQYYDGDGPIPPSVAKTMMADLDLGMWNFCGALYGPPPVMDTLWTAIRDSFADIPGVKFYFPEDRRHKVDLLLHRAETMKGVPKLTEFNFLNWDGGGGHVGFSPVSPITGKDAIKQYNMVSSRVREYGFDYMGLLAIGWRDLHHVTVIVYDKTDPDERKKLDELFNILVDEAAAEGYGEYRTHIRYMDRIAKTYSWNDNALWKMHETIKDALDPNGILAPGKSGIWGKNRRKA
notes: as for B2
On to B4, for which, in “purified protein [2]”, the Km came to 17.6 ± 5.5 µM, the kcat turned out to be 0.48 ± 0.03 s⁻¹ and the kcat/Km amounted to 27000 M⁻¹ s⁻¹.

B5: VAD (vanillyl-alcohol dehydrogenase from Marinicaulis flavus) (Hyphococcus luteus) (protein)
chain: MAAPLPEGVSAEAMSSALDRFARIVGADWVFTEDKITPYEDPYTISNDETEHRPYAAVAPASTEEVQEIVRVANEFGVPLWPVSRGKNFAYGGAAPVMSGTVVLDMNRMNRILEVNEEFGYALVEPGVSYFELYDYIQEKGLKLWIDVPDPGWGSVVGNALDHGIGYTPYGDHFAMQCGMEVVLPNGEVVRTGMGAMPGNNTWQLFKYGYGPYVDGIFSQSNFGVVTKMGIWLMPEPAGYRPYLITFENEDDIETVTERLRPLKVAGVIQNGATVRSLVLDAAITRTKSQYYDGDGPIPPSVAKTMMADLDLGMWNFCGALYGPPPVMDTLWTAIRDSFADIPGVKFYFPEDRRHKVDLLLHRAETMKGVPKLTEFNFLNWDGGGGHVGFSPVSPITGKDAIKQYNMVSSRVREYGFDYMGLLAIGWRDLHHVTVIVYDKTDPDERKKLDELFNILVDEAAAEGYGEYRTHIRYMDRIAKTYSWNDNALWKMHETIKDALDPNGILAPGKSGIWGKNRRKA
notes: as for B2
As to B5, the Km in “purified protein [2]” turned out to be 74.2 ± 12.4 µM; in “purified protein [3]”, 208 ± 9 µM; in “purified protein [4]” it was 330 ± 40 µM; in the data set “purified protein [5]”, 51.2 ± 13.1 µM. For the same protein, the kcat in the data set “purified protein [2]” turned out to be 0.44 ± 0.02 s⁻¹; in “purified protein [3]”, 0.25 ± 0.01 s⁻¹; in the data set “purified protein [4]”, 0.06 ± 0.003 s⁻¹; in “purified protein [5]”, 0.81 ± 0.06 s⁻¹. The catalytic efficiency (kcat/Km) in the data set “purified protein [2]” worked out at 6000 M⁻¹ s⁻¹; in “purified protein [3]”, 1200 M⁻¹ s⁻¹; in “purified protein [4]”, 200 M⁻¹ s⁻¹; in the data set “purified protein [5]”, 16000 M⁻¹ s⁻¹.

B6: VAD (vanillyl-alcohol dehydrogenase from Marinicaulis flavus) (Hyphococcus luteus; P151G) (protein)
chain: MAAPLPEGVSAEAMSSALDRFARIVGADWVFTEDKITPYEDPYTISNDETEHRPYAAVAPASTEEVQEIVRVANEFGVPLWPVSRGKNFAYGGAAPVMSGTVVLDMNRMNRILEVNEEFGYALVEPGVSYFELYDYIQEKGLKLWIDVPDGGWGSVVGNALDHGIGYTPYGDHFAMQCGMEVVLPNGEVVRTGMGAMPGNNTWQLFKYGYGPYVDGIFSQSNFGVVTKMGIWLMPEPAGYRPYLITFENEDDIETVTERLRPLKVAGVIQNGATVRSLVLDAAITRTKSQYYDGDGPIPPSVAKTMMADLDLGMWNFCGALYGPPPVMDTLWTAIRDSFADIPGVKFYFPEDRRHKVDLLLHRAETMKGVPKLTEFNFLNWDGGGGHVGFSPVSPITGKDAIKQYNMVSSRVREYGFDYMGLLAIGWRDLHHVTVIVYDKTDPDERKKLDELFNILVDEAAAEGYGEYRTHIRYMDRIAKTYSWNDNALWKMHETIKDALDPNGILAPGKSGIWGKNRRKA
notes: as for B2
Consider B6, for which, in the data set “purified protein [2]”, the Km was found to be 316.5 ± 39.7 µM, the kcat was found to be 1.49 ± 0.07 s⁻¹ and the kcat/Km was determined as 5000 M⁻¹ s⁻¹.

B7: VAD (vanillyl-alcohol dehydrogenase from Marinicaulis flavus) (Hyphococcus luteus; P151V) (protein)
chain: MAAPLPEGVSAEAMSSALDRFARIVGADWVFTEDKITPYEDPYTISNDETEHRPYAAVAPASTEEVQEIVRVANEFGVPLWPVSRGKNFAYGGAAPVMSGTVVLDMNRMNRILEVNEEFGYALVEPGVSYFELYDYIQEKGLKLWIDVPDVGWGSVVGNALDHGIGYTPYGDHFAMQCGMEVVLPNGEVVRTGMGAMPGNNTWQLFKYGYGPYVDGIFSQSNFGVVTKMGIWLMPEPAGYRPYLITFENEDDIETVTERLRPLKVAGVIQNGATVRSLVLDAAITRTKSQYYDGDGPIPPSVAKTMMADLDLGMWNFCGALYGPPPVMDTLWTAIRDSFADIPGVKFYFPEDRRHKVDLLLHRAETMKGVPKLTEFNFLNWDGGGGHVGFSPVSPITGKDAIKQYNMVSSRVREYGFDYMGLLAIGWRDLHHVTVIVYDKTDPDERKKLDELFNILVDEAAAEGYGEYRTHIRYMDRIAKTYSWNDNALWKMHETIKDALDPNGILAPGKSGIWGKNRRKA
notes: as for B2
For the protein B7, in the data set “purified protein [2]”, the Km was 42.2 ± 6.6 µM, the kcat amounted to 0.90 ± 0.04 s⁻¹ and the kcat/Km was determined as 21000 M⁻¹ s⁻¹.

B8: VAD (vanillyl-alcohol dehydrogenase from Marinicaulis flavus) (Hyphococcus luteus; P151N) (protein)
chain: MAAPLPEGVSAEAMSSALDRFARIVGADWVFTEDKITPYEDPYTISNDETEHRPYAAVAPASTEEVQEIVRVANEFGVPLWPVSRGKNFAYGGAAPVMSGTVVLDMNRMNRILEVNEEFGYALVEPGVSYFELYDYIQEKGLKLWIDVPDNGWGSVVGNALDHGIGYTPYGDHFAMQCGMEVVLPNGEVVRTGMGAMPGNNTWQLFKYGYGPYVDGIFSQSNFGVVTKMGIWLMPEPAGYRPYLITFENEDDIETVTERLRPLKVAGVIQNGATVRSLVLDAAITRTKSQYYDGDGPIPPSVAKTMMADLDLGMWNFCGALYGPPPVMDTLWTAIRDSFADIPGVKFYFPEDRRHKVDLLLHRAETMKGVPKLTEFNFLNWDGGGGHVGFSPVSPITGKDAIKQYNMVSSRVREYGFDYMGLLAIGWRDLHHVTVIVYDKTDPDERKKLDELFNILVDEAAAEGYGEYRTHIRYMDRIAKTYSWNDNALWKMHETIKDALDPNGILAPGKSGIWGKNRRKA
notes: as for B2
Take B8: in “purified protein [2]”, the Km came out at 151 ± 24 µM, the kcat was found to be 0.14 ± 0.07 s⁻¹ and the kcat/Km was found to be 1000 M⁻¹ s⁻¹.
